# Laboratory results: the RNAGym collection of RNA variant scans (doi:10.7554/elife.90254)
# B1: LINE1-mini (parent)
# chain: GGCAGAGCUCAACACAGCGUGGCAAAGUGGCUGUGGCUAGACUGCC
# Variants of: B1
# Assay: self-cleavage, relative activity (ratio to wild type); higher = more cleavage; in vitro, sequencing; the parent is a self-cleaving ribozyme
row,Variant,self-cleavage
1,GGCAGAGAUCAUCACAGCGUGGCAAAGUGGCUGUGGCUAGACUGCC [C8A A12U],0.23
2,GGCAGAGAUCACCACAGCGUGGCAAAGUGGCUGUGGCUAGACUGCC [C8A A12C],0.04
3,GGCAGAGAUCAGCACAGCGUGGCAAAGUGGCUGUGGCUAGACUGCC [C8A A12G],0.11
4,GGCAGAGAUCAACACAGCGUGGCCAAGUGGCUGUGGCUAGACUGCC [C8A A24C],0.31
5,GGCAGAUCUCAACACAGCGUGGCAAAGUGACUGUGGCUAGACUGCC [G7U G30A],0.11
6,GGCAGAUCUCAACACAGCGUGGCAAAGUGUCUGUGGCUAGACUGCC [G7U G30U],0.1
7,GGCAGAUCUCAACACAGCGUGGCAAAGUGCCUGUGGCUAGACUGCC [G7U G30C],0.06
8,GGCAGAUCUCAACACAGCGUGGCAAAGUGGCUGUGGCUAGAGUGCC [G7U C42G],0.12
9,GGCAGAUCUCAACACAGCGUGGCAAAGUGGCUGUGGCUAGAAUGCC [G7U C42A],0.06
10,GGCAGAUCUCAACACAGCGUGGCAAAGUGGCUGUGGCUAGAUUGCC [G7U C42U],0.12
11,GGCAGAUCUCAACACAGCGUAGCAAAGUGGCUGUGGCUAGACUGCC [G7U G21A],0.14
12,GGCAGAUCUCAACACAGCGUUGCAAAGUGGCUGUGGCUAGACUGCC [G7U G21U],0.1
13,GGCAGAUCUCAACACAGCGUCGCAAAGUGGCUGUGGCUAGACUGCC [G7U G21C],0.08
14,GGCAGAUCUCAACACAGCGGGGCAAAGUGGCUGUGGCUAGACUGCC [G7U U20G],0.08
15,GGCAGAUCUCAACACAGCGCGGCAAAGUGGCUGUGGCUAGACUGCC [G7U U20C],0.07
16,GGCAGAUCUCAACACAGCGAGGCAAAGUGGCUGUGGCUAGACUGCC [G7U U20A],0.06
17,GGCAGAUCUCAACACAGCGUGGCAAAGUGGCUAUGGCUAGACUGCC [G7U G33A],0.13
18,GGCAGAUCUCAACACAGCGUGGCAAAGUGGCUUUGGCUAGACUGCC [G7U G33U],0.13
19,GGCAGAUCUCAACACAGCGUGGCAAAGUGGCUCUGGCUAGACUGCC [G7U G33C],0.15

row,Variant,self-cleavage
1,GGCAGAGAUCAACCCAGCGUGGCAAAGUGGCUGUGGCUAGACUGCC [C8A A14C],0.18
2,GGCAGAGAUCAACUCAGCGUGGCAAAGUGGCUGUGGCUAGACUGCC [C8A A14U],0.25
3,GGCAGAGAUCAACGCAGCGUGGCAAAGUGGCUGUGGCUAGACUGCC [C8A A14G],0.56
4,GGCAGAUCUCAACACAGCGUGGCAAGGUGGCUGUGGCUAGACUGCC [G7U A26G],0.05
5,GGCAGAUCUCAACACAGCGUGGCAAUGUGGCUGUGGCUAGACUGCC [G7U A26U],0.34
6,GGCAGAUCUCAACACAGCAUGGCAAAGUGGCUGUGGCUAGACUGCC [G7U G19A],0.07
7,GGCAGAUCUCAACACAGCCUGGCAAAGUGGCUGUGGCUAGACUGCC [G7U G19C],0.05
8,GGCAGAUCUCAACACAGCUUGGCAAAGUGGCUGUGGCUAGACUGCC [G7U G19U],0.05
9,GGCAGAUCUAAACACAGCGUGGCAAAGUGGCUGUGGCUAGACUGCC [G7U C10A],0.04
10,GGCAGAUCUGAACACAGCGUGGCAAAGUGGCUGUGGCUAGACUGCC [G7U C10G],0.03
11,GGCAGAUCUUAACACAGCGUGGCAAAGUGGCUGUGGCUAGACUGCC [G7U C10U],0.04
12,GGCAGAUCUCAACACAGCGUGGCAAAGUGGCUGUGGCUCGACUGCC [G7U A39C],0.19
13,GGCAGAUCUCAACACAGCGUGGCAAAGUGGCUGUGGCUGGACUGCC [G7U A39G],0.06
14,GGCAGAUCUCAACACAGCGUGGCAAAGUGGCUGUGGCUUGACUGCC [G7U A39U],0.1
15,GGCAGAUCUCAACACAGCGUGGAAAAGUGGCUGUGGCUAGACUGCC [G7U C23A],0.06
16,GGCAGAUCUCAACACAGCGUGGGAAAGUGGCUGUGGCUAGACUGCC [G7U C23G],0.08
17,GGCAGAUCUCAACACAGCGUGGUAAAGUGGCUGUGGCUAGACUGCC [G7U C23U],0.06
18,GGCAGAGAUCAACACAGCGUGGCAAAGUGGCUGUGGCUAGACUGCC [C8A],0.29
19,GGCAGAUCUCAACACAGGGUGGCAAAGUGGCUGUGGCUAGACUGCC [G7U C18G],0.14

row,Variant,self-cleavage
1,GGCAGAUCUCAACACAGUGUGGCAAAGUGGCUGUGGCUAGACUGCC [G7U C18U],0.14
2,GGCAGAUCUCAACACAGAGUGGCAAAGUGGCUGUGGCUAGACUGCC [G7U C18A],0.08
3,GGCAGAUCGCAACACAGCGUGGCAAAGUGGCUGUGGCUAGACUGCC [G7U U9G],0.09
4,GGCAGAUCCCAACACAGCGUGGCAAAGUGGCUGUGGCUAGACUGCC [G7U U9C],0.04
5,GGCAGAUCACAACACAGCGUGGCAAAGUGGCUGUGGCUAGACUGCC [G7U U9A],0.23
6,GGCAGAUCUCAACACAGCGUGGCAAAGUGGCUGCGGCUAGACUGCC [G7U U34C],0.09
7,GGCAGAUCUCAACACAGCGUGGCAAAGUGGCUGGGGCUAGACUGCC [G7U U34G],0.05
8,GGCAGAUCUCAACACAGCGUGGCAAAGUGGCUGAGGCUAGACUGCC [G7U U34A],0.08
9,GGCAGAUCUCAACACAGCGUGGCAAAGUGGCUGUAGCUAGACUGCC [G7U G35A],0.1
10,GGCAGAUCUCAACACAGCGUGGCAAAGUGGCUGUCGCUAGACUGCC [G7U G35C],0.08
11,GGCAGAUCUCAACACAGCGUGGCAAAGUGGCUGUUGCUAGACUGCC [G7U G35U],0.1
12,GGCAGAUCUCAACACAGCGUGGCAAAGUGGCUGUGGCUAGACUUCC [G7U G44U],0.2
13,GGCAGAUCUCAACACAGCGUGGCAAAGUGGCUGUGGCUAGACUCCC [G7U G44C],0.13
14,GGCAGAUCUCAACACAGCGUGGCAAAGUGGCUGUGGCUAGACUACC [G7U G44A],0.09
15,GGCAGAUCUCAACACAGCGUGGCAAAGUGGCUGUGGCUAGACUGAC [G7U C45A],0.16
16,GGCAGAUCUCAACACAGCGUGGCAAAGUGGCUGUGGCUAGACUGUC [G7U C45U],0.12
17,GGCAGAUCUCAACACAGCGUGGCAAAGUGGCUGUGGCUAGACUGGC [G7U C45G],0.29
18,GGCAGAUCUCAACACAGCGUGGCAAAGUGGCCGUGGCUAGACUGCC [G7U U32C],0.22
